The series is described as follows: protease stability score; higher = more stable; yeast display proteolysis, trypsin and chymotrypsin.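 Note: relative to predicted unfolded state with 0 unfolded-like and 1 meaning tenfold more protease.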
For the sequence “DEEKESAERWLHIFLHSMDTGDEDKIRKLLDPNVLNDVGDKVLIGRELAFKWFHHLRFRKVHLRDFRIINGRIEVDIDVRGEINGKEDHFRLEVDLRKINGRWVLHEIRID”, the protease stability score stood at 2.81.

The sequence “SDLREEVKEFLKLLVEAFETGDEEALHELMDPNTRFRYGDKDLIGMKILERWWHELFRHLGVDRFRIELRVHHVTIINGQMHNDGTLIIRQGDKEERFKINLVIEKIDGRWIIHMVIFE” returned a protease stability score of 0.893.

“SEEEESERKVLHKFTEAIRTGDEHTLENLIDPNVKIDAENRSHHGMEDWLKWLMELRRRADHIDFRIHSIHTQGDKLHVHSEIIVVQGDKHIHIEISMIINKVNGRWHIHHIELR” gave a protease stability score of 1.29.

Regarding “SMEEMSELYIKWWMTGDWDKLTNNADPHTRVNVGNFESVGMEHLIELMLRHVKHFGINHSILRSHDTQGDKVHVDGELHVNGRTARIVLHLEIVNGRIKSESVESRSEVFEEHLHKVLR”, the protease stability score stood at 0.635.

The sequence “SDEQEISEFILRIWLELVLTGDEKMMKKLFDPNTRFEINGVDIHGMESIAEHLLREREEWRSHITLTDREIQGDKVRVHTILKVDINGQHLRHHTRIIIIIINGRIHSIHIRVE” showed a protease stability score of 0.673.

Regarding “NEEHEVLERVVELFMEILDTGNERLSRELVDPHVRVIIGDKELHGREQVARFHKELHERVDHWEIHIRRIEFQGDKLHMDFELRNDYNGVRITTDLIILVKKVNGVWKLRAREVR”, the protease stability score was determined as 0.271.

The sequence “QEEEEFVRKFVHEVIRALMTGDEHRMHELLDPHVISSRHIGDKHVHYHGREEVLRHLHEWLTHLRIKSLEIRSHKAFDGRMIVHGTLFGQQGDKDVEFEVIIDLEVINGRIKHFHVELR” registered a protease stability score of 1.32.

Sequence “SELSEDLDMYIKIFLRHTETGDEESVRDFADPHAKLEIGDKTFHGRETFLDWFLDLRDRIPNITVRIHEVRIIGDKIHIDLEIIIGEKRTRIHLKIFKVDGVWVLKSLRIN” registered a protease stability score of 1.58.

In turn, “SEMHEATEHLLKLWVHIFETGNEKWFNKLADPDYRSRILYGDKELKSHGRENVVEVLYRWLKHFGFDHVRLEDEHIQGNKVHLHFRVQVNGRHHELDLNIDMVNGKIRHVEVILH” had a protease stability score of 1.5.

The sequence “SEYYEESKRMAEEHQHMRETGDEDRLRHLMDPTTKVEVGDKEFHGREWWHEFYKRFDHIEFRIHDIKLIDGVAIIQSIIIVRQGDKSDTLHVTIRITKVNGRWRTKSFEVI” came in with a protease stability score of 1.48.

As for “SEDHEVARDIMEILLHLYLTGNEEDLKQFFDPHVRLVIGDKNIHGREEVVNHLKRILDRIPNVRVKHFTLHDIRIIGDKIYLNTEIHVKINGRDHRSETRWVILKVDGVWHLHSVEVG”, the protease stability score worked out at 2.05.

Sequence “SEDDKREQDYHHYMMEIILTGDFKELFDLADPNVRLRIGDKHFHGRERMLDWYKHLSDRYKNARIHLHKKDYIGEKVIFHEIIHWNGKEVELHINMVIVNGRIRSIHVEDNER” came in with a protease stability score of 1.39.

On to “SEEEEFVEVAIKIVQEIRKTGDEDEQERLADPHVRFDINGQDIHGREKWTKWVHEIRVRMKHVRERHITVINGKAHIHGEVDVHFHVNGVELRIDTKYTVVIEKVNGRWRLREVHLV”, for which the protease stability score was determined as 2.22.

For the sequence “SEEDHIMEELARIFWKLMTTGDFDTLEHLMDPHTRLEVNGRIFVGREASEELWRFYKNVRTEIEDVKAQGDKNHIKGHQKFNGREKTVHIHLTIVDGRLKSMSIKEH”, the protease stability score is 2.23.

Take “DEDEQFWRNLAEEFMRALETGDEERMQELFDPHARLDIDGRRFHGWDTVIKFFEDLLKHLGITRIEFVYRRVRVINGVFHIEGEINVDGQTRDSRIENIVVDGKSQELRFNHR”: the protease stability score was 0.298.

“HEDEEEQRLANEIFHKMIWTGDEERLKDLMDPHVRIDVNGREVHGMEEWLEHFLQFKNMKFRVHFRENRIIDGVARSRTELRIIFDGREYRIDLIVIAQKINGRWILRSIEIR” registered a protease stability score of 1.34.

In turn, “DEHRELIKEMLERFERSLRTGDEHIQTEMMDPDAKIDINGVELHGRDWASRYIQKYKNVRIEVRTITIQGDKVDIHSTIIIGDKHHSMIIHARKVDGKWVLEEMWVE” gave a protease stability score of 0.613.

Take “DEEEHIARHIFEHFITWLLTGDEEVLKDLADPNVRLDINGRHVVGREEFRRWLKEDLEHLRIHDMDLRRVRVQGNKMDLDVQVDGIVNGQHRHHNTRLIFEKVDGRWLLRSIIVK”: the protease stability score was found to be 2.16.

In the case of “HEEERDLEHWDELLLKSITTGDWRILTKLVDPHARIIILVNGKLITHIGREYVYHLLLRFDHIRTHDFRTNIQGDYIDHHIEGKLHVNGKDMDSHIINHSEKVDGRWTVHTVNIEFI”, the protease stability score stood at 1.22.

In the case of “SEEDEFNREMRREIIEAWETGDFRIIEKLLDPNAKVVVGDYIDHGRHAIEVWLKRYDVRRRRDYKHVEVYDGVIRSDVRMDGEINGQRKITSVHIIFVIINGRIHQVEIHIH”, the protease stability score was found to be 1.25.

“REKDDLLHEFTERYMTAIETGDEETLEKLMDPDVKLHVGEYHDHGREDVSEWLRTHLEQWRIERIEIQHVDLQGDKLRVDLIVHARVGDKRIILHTILISRKINGRWHIKFFSMR” registered a protease stability score of 1.3.

Take “SENDELNEKLVRDWIISLHTGDEETLRDLLDPHVKVEVGEKRMHGREEYVTHLLHHARRADHIRIEIHQVHNQGDKVNIDGTLHIDVNGKHQHHRVTIIASKVNGKWLIESINIH”: the protease stability score stood at 1.03.

Sequence “SETEHYSQKLLDLIVKAMRTGDEEMFERLLDPNTRELVDGQELHGREEWHHLWHRIDHLRIDHSEISHVNPIGEFIVVHMRVRMTLHINGKIHHYETEVIIIILKIDGRWLMHEVRFH” returned a protease stability score of 0.647.

“DEEEHNLKKFLEIFLKAERTGDEEALRRMLDPNTKFVVGDKTYHGREEYIRWLNEIRIHRTEDKHIEVQGNKLHMDTRRRMEIDGREIDTEVRLELEVINGVVKLIIVDIR” showed a protease stability score of 1.86.

As for “KEEEWLAREWLRLWFEAVMTGDEHRLNHMLDPHVRTIVGDYEDVGRERSSELFLEIRLDHMELTSLDVQGDYAHLEIRVDGTIDGKRIETEMRVTLNIVDGRFRTVEHRIS”, the protease stability score was 0.755.

On to “DEIEERTKELMKIDLELLETGDEETLLHLLDPHVKIITWINGRRVQRVGRHIWVHWLRYLGIDHLHVDDVEVQGDKITFDMTIEINGRTHKAVLRSQVVDGKITSLEIEVR”, for which the protease stability score worked out at 1.63.

With “NEEEEESRRAFHLLVELLRTGDEESFTKLADPHMRIIVDGREIHGREEMRRFMEEHWERFPNMKVRIEHFRVQGDKVTIHTVVHIGDKEIEVHIHARKVNGRWIMKELIIVTR”, the protease stability score came out at 0.552.

“REIEEDVEKALRLWEKTMFTGDEDRFMELADPHTRVTFNGREVIGMEIWKTLVEELGIDVIKDTRIHDVKVQGNKVHVDSHRHVHFNGKTVEIRTRLIATKFDGRWHIESIRFQ” came in with a protease stability score of 0.803.

On to “SHHEDDSEISIELTHNLIETGDFELLTELFDPNARMDYNGVTVHGRERVSEFLSRFAHHIRIKRRILRHMDLFDGQIHLHEEYHYDWDGQDIHTEVRFRSEKVNGRWVPKLLHRI”, for which the protease stability score was 0.969.

In turn, “SEDEEFLEWTMRLYTKAHATGDEETLTDLMDPNTRLDINGVIWIGREFVRKHHEDLGAKHSRMDLRIRDRDSINGRLIVHTRFRLKIHIGDKDISIEHHTTLYMIKIDGRWHIREIEIR” yielded a protease stability score of 1.09.

The sequence “SEEEHHDRLMTDFFIEIMRTGDEKEFIDLFDPHDRTHIDGVDAHGREIAVELLHLFLRKLGFDHIRVTDVHVYNGKVELHMRSDQGDKHVEVQIHSVVYNGKLQHLHVKIRTL” registered a protease stability score of 1.63.

“GEDKELARKAVEEELESLLTGDEDRLKELIDPHTKVFINGREEIGMEALEDVLKKLGFKHIKVHHFDIRVQGDKVKNDLRGIFHVNGKDIDTQLIIISLKYNGQWFNHSLEWRTR” returned a protease stability score of 0.595.

“DHHEEASHRVIEILLRAHRTGDWHELLRMMDPNTMLIVGDKTFHGREELEKILRHFVERAITIHDIKIESVENQGDKIHVHGHIDKRVNGRQVSIETEIDILKVNGRWFISTLRYH” had a protease stability score of 1.89.

In the case of “HDEDEESRNAVEEYWRVLHTGDEKRWHELADPNVRNEIDGRTYHGRESFRFLFHLHEEKFKNVKIELHSVNIQGDKIKMLIEIKYGDKNIHMIIIAQKIDGKWKNERIHVFHH”, the protease stability score came out at 0.744.

In turn, “SEEEEDARQAFEEYTESLKTGDEDTLDRLLDPDTLLIINGREIHGMEEAIRIWHVWLRHMRFRSQEMRRIRVIDGKIDIESRSIIDINGREVDLRVHYILHKVNGRWLIESVRFE” had a protease stability score of 2.38.

“EELERDMDHWIELVIKLRKTGDWRQLAEMVDPNVRVDVNGVQIHGRESIEELLKRLGIDNVEVSLRDKDRQGEKMIVDMELHYNGKRHETKYIALKINGKWIFETITIR” showed a protease stability score of 1.38.

Sequence “TEEHEKSEIAVELIIRTLVTGDEELMNKLIDPHVRIEFENRELVGRETYTKIYSRELRELGWEFVTTELRHIETQGEKVELQGDLVINGKRIKVHLYFHKYNGVWFLKRVHYE” had a protease stability score of 1.19.

Consider “TEDDKDWEEIYKMLEHASKTGDERIFNKFIDPNTMSVVNGVDLIGMERWRNHWEHARFRHIEFRHVEIIDGRLDIQGHLRGEYNGREIRTDMRLIILKIDGRWIHKSFEFH”, for which the protease stability score was 0.944.

“DEREKEALDIAREVLHNIMTGDWERLSQLLDPNTRFHEHWNGVHIDLHGRETVSHLLFRHVKHIRIEHVHLEDMVVIGEKAIIHSRRHIEIDGKHMTHHVLLYLLVIDGKIKDVRLHLE” had a protease stability score of 0.869.

Take “SEDEEKSKRDAQHWFNNWLTGDWRRTLELADPHARIDINGKELHGMHESLELLTRLIEKLGVDHIEMKKSDVVGDKMHIHGHLDIDGQKRDLTIFLLIIDGRLKHSQFELT”: the protease stability score came to 0.165.

Sequence “DEEENMAEWAIRLMKHVIETGNFEEFLRLFDPNTRMHVNGVESHGRERSSKVLKEWLEIMGVDHLKVRDEKFSVQGNKLHIHLDTRTEQGDKEIETHIEVISYKIDGRWRQKEIRFEVR” yielded a protease stability score of 1.69.

As to “DEEHEEYHRMFRVVEHAYRTGDWKTLSDYMDPNAKQTVGNKEYHGREQVDESLKRLGIKVTDVEDSKEDHINGRLVVRLDQHLEVNGRRIKIHVLIIIIKINGRWIITENMYIFH”, the protease stability score stood at 0.141.

Take “SEDEEISKKIIERILETMRTGDEDIMEHLVDPDAKFHDEDHHDHGREAFRWWSEFVKRIAGHDKVEIRQQHVKFQGNKVILHTIVIQGNKIYELIIVMEKFDGRWSISTVHIR”: the protease stability score amounted to 1.43.

In the case of “DEMDEISKEAWRMLKEITRTGDEDLMHKNVDPNARVIYGDKVVHGRERVTKILVEMRIDHEEHRDSRVVGNKVELDVHFDGEFDGRRFRTDVHWVIVKINGQWRIKEHVIL”, the protease stability score was 1.22.

In turn, “DEDDKKAEDFANVIAHNLMTGDEEKHNKMIDPNVKIFINGQTVHGRDEFSKVMRRYKNLRIDWEVEELEIVNGQVRLKGHLHVEVNGVETRIDTHIVVTKVNGRWHMKEIYYH” returned a protease stability score of 1.62.

Sequence “SDLEMEMKRWMELWLRMFVTGDFRTFLHLADPEYKVSAEGVSSHGRDFHIKELLRWLKEIRIHDFHVKDMDVQGDKAHSDGRHNGIVDGRNRDVNVHNEIVTIDGRLRSVTIRLE” gave a protease stability score of 0.534.

Sequence “SEDHERERRVNEEFLTAMWTGDEKWIMNLADPNVRTEWNGVENIGRETISEHLDHQKKRLGVKHIEIKHVEIINGVLHMHGRLDVNGVETEVIIRSFIIDGRLTELIFEIR” had a protease stability score of 0.819.

Source of the values: the NTF2 design screens of Basanta et al. (2020).
